According to US20170333570A1 (FORMATION BIOLOGICS, published 2017):

Target: human epidermal growth factor receptor (hEGFR) (human, UniProt P00533 25-1210)
Assay: cell-based or functional assay

B1: 1024-DM1 (antibody, V domains shown)
VH: QVQLQQPGAELVEPGGSVKLSCKASGYTFTSHWMHWVKQRPGQGLEWIGEINPSSGRNNYNEKFKSKATLTVDKSSSTAYMQFSSLTSEDSAVYYCVRYYGYDEAMDYWGQGTSVTVS
VL: DIVMTQAAFSNPVTLGTSASISCRSSKSLLHSNGITYLYWYLQKPGQSPQLLIYQMSNLASGVPDRFSSSGSGTDFTLRISRVEAEDVGVYYCAQNLELPYTFGGGTKLEIKR
modifications: DM1 conjugated through SMCC linker; conjugated residues and chain not stated
How did the “IC50 (nM), cell growth/survival (sulforhodamine B), A549” value turn out when B1 was run?
Its value is 24.7 nM.

What about the “IC50 (nM), cell growth/survival (sulforhodamine B), NCI-H226” value of the same binder?
The value was 1.89 nM.

What about the “IC50 (nM), cell growth/survival (sulforhodamine B), NCI-H292” value of the same binder?
Its value is 0.09 nM.

B2: 992-DM1 (antibody, V domains shown)
VH: EVQLQQPGSELVRPGASVKLSCKASGYTFTSYWMHWVKQRPGQGLEWIGNIYPGSRSTNYDEKFKSKATLTVDTSSSTAYMQLSSLTSEDSAVYYCTRNGDYYVSSGDAMDYWGQGTSVTVS
VL: DIQMTQTTSSLSASLGDRVTISCRTSQDIGNYLNWYQQKPDGTVKLLIYYTSRLHSGVPSRFSGSGSGTDFSLTINNVEQEDVATYFCQHYNTVPPTFGGGTKLEIKR
modifications: DM1 conjugated through SMCC linker; conjugated residues and chain not stated
With B2 as the binder, how does the “IC50 (nM), cell growth/survival (sulforhodamine B), A549” value read?
Its value is 2.2 nM.

And the “IC50 (nM), cell growth/survival (sulforhodamine B), NCI-H226” value?
The value was 1.07 nM.

And the “IC50 (nM), cell growth/survival (sulforhodamine B), NCI-H292” value?
Its value is 0.22 nM.
